To fix the notation:
T1: peptide on HLA-A*02:01 (human)
T1 peptide: SLLMWITQC

T2: PRAME peptide on HLA-A*02:01 (human)
T2 peptide: SLLQHLIGL

B1: PN42845 (TCR, V domains shown)
V domain 1: TQLLEQSPQFLSIQEGENLTVYCNSSSVFSSLQWYRQEPGEGPVLLVTVVTGGEVKKLKRLTFQFGDARKDSSLHITAAQPGDTGLYLCAGIRSNDYKLSFGAGTTVTVRA
V domain 2: EAQVTQNPRYLITVTGKKLTVTCSQNMNHEYMSWYRQDPGLGLRQIYYSMNVEVTDKGDVPEGYKVSRKEKRNFPLILESPSPNQTSLYFCASSSWTAHTEAFFGQGTRLTVV
B2: PN42712 (TCR, V domains shown)
V domain 1: GIQVEQSPPDLILQEGANSTLRCNFSDSVNNLQWFHQNPWGQLINLFYIPSGTKQNGRLSATTVATERYSLLYISSSQTTDSGVYFCAVGSSNDYKLSFGAGTTVTVRA
V domain 2: EAQVTQNPRYLITVTGKKLTVTCSQNMNHEYMSWYRQDPGLGLRQIYYSMNVEVTDKGDVPEGYKVSRKEKRNFPLILESPSPNQTSLYFCASSPGTGGFSPLHFGNGTRLTVT
B3: PN42833 (TCR, V domains shown)
V domain 1: DAKTTQPPSMDCAEGRAANLPCNHSTISGNEYVYWYRQIHSQGPQYIIHGLKNNETNEMASLIITEDRKSSTLILPHATLRDTAVYYCIVRDTTSGTYKYIFGTGTRLKVLA
V domain 2: B2 V domain 2 with P95L, G96S, T97S, G98T
B4: PN42711 (TCR, V domains shown)
V domain 1: B2 V domain 1 with A17V, Q78R, D94G
V domain 2: B2 V domain 2
B5: PN42774 (TCR, V domains shown)
V domain 1: QKEVEQNSGPLSVPEGAIASLNCTYSDRGSQSFFWYRQYSGKSPELIMSIYSNGDKEDGRFTAQLNKASQYVSLLIRDSQPSDSATYLCAVNRGTDKLIFGTGTRLQVFP
V domain 2: DAGVTQSPTHLIKTRGQQVTLRCSPKSGHDTVSWYQQALGQGPQFIFQYYEEEERQRGNFPDRFSGHQFPNYSSELNVNALLLGDSALYLCASSWTDYGYTFGSGTRLTVV
B6: PN42870 (TCR, V domains shown)
V domain 1: TQLLEQSPQFLSIQEGENLTVYCNSSSVFSSLQWYRQEPGEGPVLLVTVVTGGEVKKLKRLTFQFGDARKDSSLHITAAQPGDTGLYLCAENSGGGADGLTFGKGTHLIIQP
V domain 2: B5 V domain 2 with W95F
B7: PN42795 (TCR, V domains shown)
V domain 1: RKEVEQDPGPFNVPEGATVAFNCTYSNSASQSFFWYRQDCRKEPKLLMSVYSSGNEDGRFTAQLNRASQYISLLIRDSKLSDSATYLCVVNGGSQGNLIFGKGTKLSVKP
V domain 2: B5 V domain 2 with W95V, T96G
B8: PN42762 (TCR, V domains shown)
V domain 1: DAKTTQPNSMESNEEEPVHLPCNHSTISGTDYIHWYRQLPSQGPEYVIHGLTSNVNNRMASLAIAEDRKSSTLILHRATLRDAAVYYCILNTGTASKLTFGTGTRLQVTL
V domain 2: EAQVTQNPRYLITVTGKKLTVTCSQNMNHEYMSWYRQDPGLGLRQIYYSMNVEVTDKGDVPEGYKVSRKEKRNFPLILESPSPNQTSLYFCASSLSSNTEAFFGQGTRLTVV
B9: PN42826 (TCR, V domains shown)
V domain 1: DQQVKQNSPSLSVQEGRISILNCDYTNSMFDYFLWYKKYPAEGPTFLISISSIKDKNEDGRFTVFLNKSAKHLSLHIVPSQPGDSAVYFCAASAGSARQLTFGSGTQLTVLP
V domain 2: B8 V domain 2 with S96Y, S97T, N98H
B10: PN42815 (TCR, V domains shown)
V domain 1: GESVGLHLPTLSVQEGDNSIINCAYSNSASDYFIWYKQESGKGPQFIIDIRSNMDKRQGQRVTVLLNKTVKHLSLQIAATQPGDSAVYFCAENNYGQNFVFGPGTRLSVLP
V domain 2: B8 V domain 2 with S96W, S97D, N98S, T99S, E100P, A101L, F102H, Q105N, V112T
notes: the summary and claims print the pair as 893/805
B11: PN42441 (TCR, V domains shown)
V domain 1: DAKTTQPNSMESNEEEPVHLPCNHSTISGTDYIHWYRQLPSQGPEYVIHGLTSNVNNRMASLAIAEDRKSSTLILHRATLRDAAVYYCIRRPGNQFYFGTGTSLTVIP
V domain 2: B8 V domain 2 with S96W, S97T, N98G, T99S
B12: PN42895 (TCR, V domains shown)
V domain 1: B9 V domain 1 with N7S
V domain 2: B8 V domain 2 with S96W

Positions count from the first letter of the chain named.

Data on 12 molecules can be found in patent publication US20230060095A1 (Regeneron, published 2023).

One assay addresses T1, peptide on HLA-A*02:01. Kind of assay: activation reporter or marker.
Turning to B1, the binding result is “no recognition”.

Regarding B2, the binding result is reported as “no recognition”.

For B3, the binding result is listed as “no recognition”.

As for B4, the binding result is “no recognition”.

As to B5, the binding result was “no recognition”.

Turning to B6, the binding result is listed as “no recognition”.

As to B7, the binding result is listed as “no recognition”.

On to B8, for which the binding result is “no recognition”.

For the molecule B9, the binding result was “no recognition”.

Consider B10, for which the binding result is recorded as “no recognition”.

For the molecule B11, the binding result is recorded as “no recognition”.

Turning to B12, the binding result is “no recognition”.

For another assay, the target named is T3, soluble HLA:A2:PRAME (425-433) tetramer (human).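 Also: CHO cells transfected with vectors encoding full-length paired TCR alpha and beta chains, stained with PRAME/HLA tetramer and read by flow cytometry, each value reflects one listed TCR.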
T3 construct: Commercial tetramer (MBL International); construct limits, biotin tag and streptavidin/fluorophore not described; also called PRAME/HLA tetramer reagent; PRAME (425-433)/HLA-A2
Kind of assay: flow cytometry, soluble pMHC tetramer on CHO cells expressing the TCR. (In flow cytometry, cells or beads pass a laser one at a time.)
In the case of B1, the “Cell Frequency ≥1000 MFI, ≥1% (% tetramer positive cells in the Ag+ gate)” value came out at 10.5%.

Turning to B2, the “Cell Frequency ≥1000 MFI, ≥1% (% tetramer positive cells in the Ag+ gate)” value was 80.7%.

With B3, the “Cell Frequency ≥1000 MFI, ≥1% (% tetramer positive cells in the Ag+ gate)” value stood at 6.86%.

For the molecule B4, the “Cell Frequency ≥1000 MFI, ≥1% (% tetramer positive cells in the Ag+ gate)” value stood at 4.26%.

B5: the “Cell Frequency ≥1000 MFI, ≥1% (% tetramer positive cells in the Ag+ gate)” value was found to be 91.6%.

Take B6: the “Cell Frequency ≥1000 MFI, ≥1% (% tetramer positive cells in the Ag+ gate)” value came out at 7.27%.

Regarding B7, the “Cell Frequency ≥1000 MFI, ≥1% (% tetramer positive cells in the Ag+ gate)” value amounted to 49.4%.

In the case of B8, the “Cell Frequency ≥1000 MFI, ≥1% (% tetramer positive cells in the Ag+ gate)” value is 4.95%.

As for B9, the “Cell Frequency ≥1000 MFI, ≥1% (% tetramer positive cells in the Ag+ gate)” value came to 9.26%.

On to B10, for which the “Cell Frequency ≥1000 MFI, ≥1% (% tetramer positive cells in the Ag+ gate)” value was 4.35%.

As for B11, the “Cell Frequency ≥1000 MFI, ≥1% (% tetramer positive cells in the Ag+ gate)” value turned out to be 15.5%.

For B12, the “Cell Frequency ≥1000 MFI, ≥1% (% tetramer positive cells in the Ag+ gate)” value was 4.09%.

For the next assay, the target named is T2, PRAME peptide on HLA-A*02:01. Kind of assay: multimer staining.
Consider B1, for which the binding result is listed as “recognises”.

Consider B2, for which the binding result is “recognises”.

Regarding B3, the binding result is on record as “recognises”.

In the case of B4, the binding result is “recognises”.

Turning to B5, the binding result was “recognises”.

With B6, the binding result is “recognises”.

B7: the binding result is listed as “recognises”.

Turning to B8, the binding result is on record as “recognises”.

As for B9, the binding result was “recognises”.

With B10, the binding result was “recognises”.

Regarding B11, the binding result is recorded as “recognises”.

With B12, the binding result is given as “recognises”.

In another assay the target is HLA-A2/PRAME (425-433) on HLA-A2*01 HEK293T cells pulsed with PRAME 425-433 peptide (human). Briefly: cell-based or functional assay.
As to B1, the “EC50 (µM) of peptide, AP1 luciferase reporter in Jurkat cells expressing the TCR” value (shortened to “EC50 (µM) of peptide”) was 0.911 µM.

Turning to B2, the “EC50 (µM) of peptide” value amounted to 0.0133 µM.

For the molecule B3, the “EC50 (µM) of peptide” value amounted to 0.0479 µM.

As to B4, the “EC50 (µM) of peptide” value is 0.0569 µM.

As for B5, the “EC50 (µM) of peptide” value amounted to 0.876 µM.

For the molecule B6, the “EC50 (µM) of peptide” value stood at 0.13 µM.

Consider B7, for which the “EC50 (µM) of peptide” value was 0.245 µM.

As for B8, the “EC50 (µM) of peptide” value was 115 µM.

Regarding B9, the “EC50 (µM) of peptide” value is 4.92 µM.

In the case of B10, the “EC50 (µM) of peptide” value was 0.126 µM.

B11: the “EC50 (µM) of peptide” value turned out to be 0.821 µM.

Turning to B12, the “EC50 (µM) of peptide” value is 0.94 µM.
